Experimental data: patent US20090170763A1 (KENJI KANGAWA, published 2009)
Where two headings read alike, the source gives them in different places. Numbered stars: 1 amine (or outer) side, 2 acyl side, 3 side chain; on linkers, the order of the positions; unused ones are H or OH. Square brackets hold non-standard residues; d marks the D form. Ends that are not written are not given here. * marks the point of attachment. Ethylenediamine = C(CN[*:2])N[*:1]; Palmitoyl = CCCCCCCCCCCCCCCC(=O)*; Lauroyl = CCCCCCCCCCCC(=O)*; Octanoyl = CCCCCCCC(=O)*; NHBn = c1ccc(CN*)cc1; Butyryl = CCCC(=O)*; Ava = NCCCCC(=O)O; Octyl = CCCCCCCC*

What was measured:
Assay in all cases: cell-based or functional assay
[1] = molecular target: rat GHS-R (GHS receptor) expressed on CHO-GHSR62 cells (rat) (UniProt O08725)
Chain of rat GHS-R (GHS receptor) expressed on CHO-GHSR62 cells (rat) (O08725 whole entry): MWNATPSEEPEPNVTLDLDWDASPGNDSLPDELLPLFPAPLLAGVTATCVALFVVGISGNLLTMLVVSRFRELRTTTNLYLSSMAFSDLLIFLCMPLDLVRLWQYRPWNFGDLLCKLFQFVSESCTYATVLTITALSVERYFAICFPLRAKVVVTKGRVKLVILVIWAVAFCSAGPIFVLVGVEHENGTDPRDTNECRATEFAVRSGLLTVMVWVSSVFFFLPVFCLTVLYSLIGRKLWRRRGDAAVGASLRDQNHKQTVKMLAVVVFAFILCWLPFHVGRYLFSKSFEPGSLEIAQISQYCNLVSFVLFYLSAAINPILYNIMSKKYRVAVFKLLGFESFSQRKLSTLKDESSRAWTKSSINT

[2] = molecular target: T1, rat GHS-R (GHS receptor) expressed on CHO-GHSR62 cells (rat, UniProt O08725 1-364)
T1 sequence (O08725 whole entry): as above

[3] = molecular target: T1, rat GHS-R (GHS receptor) expressed on …; remark: listed apart in the source
[4] = molecular target: T1, rat GHS-R (GHS receptor) expressed on …; remark: listed apart in the source
[5] = molecular target: T1, rat GHS-R (GHS receptor) expressed on …; remark: listed apart in the source
[6] = molecular target: T1, rat GHS-R (GHS receptor) expressed on …; remark: listed apart in the source

[N-Aminopentanoyl,Ser^3(Octyl),Lys^5]-Ghrelin (3-5)-amide (peptide)
Activity EC50 [1]: 12 nM

[D-Lys 3]-GHRP-6 (peptide)
inhibition of the Ca-releasing activity of ghrelin [1]: 100 µM

[N-Aminopentanoyl,^DSer^3(Octyl),^DPhe^4,Lys^5]-Ghrelin (3-5)-amide (peptide)
Activity EC50 [1]: 1600 nM

[Aib^1,His^2,^DNal^3,^DPhe^4,Lys^5]-Ghrelin (1-5)-amide (peptide)
Activity EC50 [1]: 2.5 nM
EC50 value [1]: 2.5 nM

B1: [N-Aminopentanoyl,Ser^3(Octyl)]-Ghrelin (3-5)-amide (peptide)
peptide: [Ava]S(Octyl)FL-NH2
modifications: N-terminus assumed
SMILES: CCCCCCCCOC[C@H](NC(=O)CCCCN)C(=O)N[C@@H](Cc1ccccc1)C(=O)N[C@@H](CC(C)C)C(N)=O
Activity EC50 [2]: 11 nM

GSS(Palmitoyl)FLSPEHQKAQQRKESKKPPAKLQPR [[Ser^3(Palmitoyl)]-rGhrelin]
Ca-releasing activity EC50 [3]: 6.5 nM
Ca-releasing activity (EC50, nM) [4]: 3.1 nM

GSS(Octanoyl)FLSPE [Ghrelin (1-8)]
Ca-releasing activity (EC50, nM) [4]: 100 nM
Ca-releasing activity EC50 [5]: 100 nM

GSKFLSPEHQRVQQRKESKKPPAKLQPR [[Lys^3]-hGhrelin]
Activity EC50 [6]: 120 nM

[Ava]S(Octyl)FL-Ethylenediamine [[N-Aminopentanoyl,Ser^3(Octyl)]-Ghrelin (3-5)-aminoethylamide]
Activity EC50 [2]: 3.5 nM

GSS(Ac)FLSPEHQKAQQRKESKKPPAKLQPR [[Ser^3(Acetyl)]-rGhrelin]
Ca-releasing activity EC50 [3]: 780 nM
Ca-releasing activity (EC50, nM) [4]: 780 nM

GSS(Octanoyl)FLSPEHQ [Ghrelin (1-10)]
Ca-releasing activity (EC50, nM) [4]: 19 nM
Ca-releasing activity EC50 [5]: 19 nM

GSS(Octanoyl)FLSPEH [Ghrelin (1-9)]
Ca-releasing activity (EC50, nM) [4]: 38 nM
Ca-releasing activity EC50 [5]: 38 nM

GSFFLSPEHQRVQQRKESKKPPAKLQPR [[Phe^3]-hGhrelin]
Activity EC50 [6]: 2000 nM

[Ava]S(Octyl)FL-NHEt [[N-Aminopentanoyl,Ser^3(Octyl)]-Ghrelin (3-5)-ethylamide]
Activity EC50 [2]: 22 nM

[Ava]S(Octyl)FL-NHMe [[N-Aminopentanoyl,Ser^3(Octyl)]-Ghrelin (3-5)-methylamide]
Activity EC50 [2]: 12 nM

GSS(Lauroyl)FLSPEHQKAQQRKESKKPPAKLQPR [[Ser^3(Lauroyl)]-rGhrelin]
Ca-releasing activity EC50 [3]: 2.4 nM

GSIFLSPEHQRVQQRKESKKPPAKLQPR [[Ile^3]-hGhrelin]
Activity EC50 [6]: > 10000 nM

GSLFLSPEHQRVQQRKESKKPPAKLQPR [[Leu^3]-hGhrelin]
Activity EC50 [6]: 4400 nM

[Ava]S(Octyl)FL-NHBn [[N-Aminopentanoyl,Ser^3(Octyl)]-Ghrelin (3-5)-benzylamide]
Activity EC50 [2]: 98 nM

GSVFLSPEHQRVQQRKESKKPPAKLQPR [[Val^3]-hGhrelin]
Activity EC50 [6]: 1600 nM

GSS(Butyryl)FLSPEHQKAQQRKESKKPPAKLQPR [[Ser^3(Butyryl)]-rGhrelin]
Ca-releasing activity EC50 [3]: 280 nM
Ca-releasing activity (EC50, nM) [4]: 280 nM

GSS(Octanoyl)F [Ghrelin (1-4)]
Ca-releasing activity (EC50, nM) [4]: 480 nM
Ca-releasing activity EC50 [5]: 480 nM

GSWFLSPEHQRVQQRKESKKPPAKLQPR [[Trp^3]-hGhrelin]
Activity EC50 [6]: 31 nM

GSSFLSPEHQKAQQRKESKKPPAKLQPR [[Ser^3]-rat Ghrelin]
Ca-releasing activity EC50 [3]: 3500 nM
